In this test the target is Fc gamma receptor (FcγR). Briefly: cell-based or functional assay.
Obinutuzumab (antibody) gave a mean fold difference in CD107a on CD3-CD56+ NK cells against samples without mAbs, RA of 3.1 fold and a mean fold difference in CD107a on CD3-CD56+ NK cells against samples without mAbs, SLE of 1.8 fold.

Turning to “non-glycoengineered, wild type glycosylated OBZ (antibody)”, the mean fold difference in CD107a on CD3-CD56+ NK cells against samples without mAbs, RA came to 1.9 fold and the mean fold difference in CD107a on CD3-CD56+ NK cells against samples without mAbs, SLE stood at 1.4 fold.

For the substance rituximab (antibody), the mean fold difference in CD107a on CD3-CD56+ NK cells against samples without mAbs, RA came to 1.2 fold and the mean fold difference in CD107a on CD3-CD56+ NK cells against samples without mAbs, SLE is 1.5 fold.

Values taken from patent US20250177521A1.
